In PMC6370856, “Peptidyl prolyl cis/trans isomerase activity on the cell surface correlates with extracellular matrix development” (Communications Biology, 2019):

Columns and labels:
[1] = test system: Jurkat cells; assay: Cellular uptake of TAMRA compounds by Jurkat cells (flow cytometry); format: cell-based; settings: 100 nM TAMRA compounds, 1 and 24 hours, compared with Cs9-TAMRA
Method: A final concentration of 100 nM DNA-conjugated TAMRA compounds and Cs9TAMRA was incubated with Jurkat cells for 1 h or 24 h, the cells were pelleted by centrifugation at 1000 rpm for 5 min, the pellet was washed one time with fluorescent-activated cell sorting (FACS) buffer (PBS with 1% bovine serum albumin), and resuspended in FACS buffer. BD FACS Canto™ II Flow Cytometer was used to analyze the uptake of these compounds by Jurkat cells (Supplementary Fig. 5).

[2] = test system: Jurkat cells; assay: Stability of DNA-conjugated compounds under Jurkat cell treatment (LC/MS); format: in vitro ADME; settings: CsA-DNA 500 nM, SLF-DNA 1000 nM, two independent experiments
Method: A designed concentration of DNA-conjugated compounds (30 µL in PBS) was incubated with 30 µL of PBS or the cell on ice for 10 min, then 20 min at 37 °C, which is much longer then the viscosity assay time. All the samples were centrifuged at 1000 rpm for 3 min, and then, 30 µL of the supernatant was transferred to MS tube for LC/MS analysis (Supplementary Fig. 4).

[3] = test system: mixture of Jurkat T lymphocyte and the plasma protein fibrinogen; assay: Viscosity/shear rate measurement of Jurkat cells in fibrinogen solution; format: cell-based
From the text: Since PPIases can catalyze the dynamic rearrangement of the dense ECM polymer network, we speculated that PPIases could also affect the dynamic interaction between cells and the ECM. Probing the influence of transient prolyl isomerization on cell–ECM interaction is difficult. Studying cell adhesion by the treatment of PPIase inhibitors cannot distinguish extracellular and intracellular factors as well as receptor-mediated signaling due to the long assay time. In order to reflect the highly dynamic process, we measured the viscosity of plasma protein solution with cells. Blood is a shear-thinning non-Newtonian fluid, and its viscosity is largely affected by the interaction between cells and plasma proteins, for example, the coagulation process. We investigated whether the catalyzed isomerization could also influence the interaction between blood cells and plasma proteins, thus affecting the viscosity. We performed viscosity/shear rate measurements using a mixture of Jurkat T lymphocyte and the plasma protein fibrinogen.
The machine used for viscosity is the same as for stiffness measurements. To 30 µL of 4 mg mL^−1 fibrinogen, an equal volume of Jurkat cells (8 × 10^7 mL^−1 in PBS, washed two times with PBS before used; Jurkat cells ocupated around 20% of the volume) was added. The mixture was pipetted up and down six times, kept on ice for 10 min, and then transferred to the rheometer plater (25 °C) for measurements. The plate temperature was raised to 37 °C. The measurement was performed by increasing shear rate ramp liner from 100 to 1000 s^−1. Hundred data points were collected during the measurements. For each condition, two independent experiments were performed (Fig. 1c and Supplementary Fig. 3).

[4] = PPIase activity of His-CypB immobilized on Ni-NTA silica; format: biochemical; settings: 25 pmol immobilized on Ni-NTA silica showed a similar activity to 1 pmol free control
Method: Ten microliters of His-CypB (2.5 µM, 2 µM, 1.5 µM, and 1 µM) was incubated with 10 µL of settled Ni-NTA macroporous silica (Ni-NTA Spin Kit; Qiagen) for 30 min at 0 °C. Subsequently, 80 µL of HEPES buffer was added and incubated for another 10 min with gentle shaking. The silica was precipitated by gravity for 10 min. Eighty microliters were taken from the supernatant and measured along with the silica fraction (the remaining 20 µL) for PPIase activity. The amounts of CypB in the wells were 25, 20, 15, and 10 pmol. Additionally, the activity of 10 µL of 100 nM His-CypB in solution was measured. Three independent experiments were performed. The result is shown in Supplementary Fig. 9.

CsA-DNA: CsA-conjugated oligonucleotide, 5-amino modifier C6-CTCTTCCGATCTC (chemistry not fully specified)
cell entry / uptake by Jurkat cells [1]: do not enter into cells
area of UV absorbance at 260 nm in supernatant ([2]; Jurkat cell 4 X 107/mL treatment): 3054±270
area of UV absorbance at 260 nm in supernatant ([2]; PBS control): 2218±11
effect on viscosity of cell/fibrinogen mixture ([3]; Jurkat T lymphocyte and fibrinogen, shear rate 100-1000 s^-1): reduced viscosity
Viscosity Mean ([3]; shear rate 102 s-1): 3.276 mPa·s
Viscosity Mean ([3]; shear rate 112 s-1): 2.725 mPa·s
Viscosity Mean ([3]; shear rate 122 s-1): 2.3889 mPa·s
Viscosity Mean ([3]; shear rate 132 s-1): 2.173 mPa·s
Viscosity Mean ([3]; shear rate 142 s-1): 1.975 mPa·s
Viscosity Mean ([3]; shear rate 152 s-1): 1.931 mPa·s
Viscosity Mean ([3]; shear rate 162 s-1): 1.858 mPa·s
Viscosity Mean ([3]; shear rate 173 s-1): 1.71 mPa·s
Viscosity Mean ([3]; shear rate 183 s-1): 1.682 mPa·s
Viscosity Mean ([3]; shear rate 193 s-1): 1.63 mPa·s
Viscosity Mean ([3]; shear rate 203 s-1): 1.558 mPa·s
Viscosity Mean ([3]; shear rate 253 s-1): 1.438 mPa·s
Viscosity Mean ([3]; shear rate 263 s-1): 1.4013 mPa·s
Viscosity Mean ([3]; shear rate 284 s-1): 1.361 mPa·s
Viscosity Mean ([3]; shear rate 304 s-1): 1.331 mPa·s
Viscosity Mean ([3]; shear rate 334 s-1): 1.301 mPa·s
Viscosity Mean ([3]; shear rate 344 s-1): 1.29 mPa·s
Viscosity Mean ([3]; shear rate 354 s-1): 1.29 mPa·s
Viscosity Mean ([3]; shear rate 364 s-1): 1.269 mPa·s
Viscosity Mean ([3]; shear rate 374 s-1): 1.245 mPa·s
Viscosity Mean ([3]; shear rate 384 s-1): 1.237 mPa·s
Viscosity Mean ([3]; shear rate 395 s-1): 1.237 mPa·s
Viscosity Mean ([3]; shear rate 415 s-1): 1.212 mPa·s
Viscosity Mean ([3]; shear rate 425 s-1): 1.198 mPa·s
Viscosity Mean ([3]; shear rate 475 s-1): 1.142 mPa·s
Viscosity Mean ([3]; shear rate 526 s-1): 1.138 mPa·s
Viscosity Mean ([3]; shear rate 556 s-1): 1.137 mPa·s
Viscosity Mean ([3]; shear rate 576 s-1): 1.139 mPa·s
Viscosity Mean ([3]; shear rate 909 s-1): 0.9613 mPa·s
Viscosity Mean ([3]; shear rate 919 s-1): 1.096 mPa·s
Viscosity Mean ([3]; shear rate 929 s-1): 0.9906 mPa·s
Viscosity Mean ([3]; shear rate 939 s-1): 0.9737 mPa·s
Viscosity Mean ([3]; shear rate 980 s-1): 0.896 mPa·s
Viscosity Mean ([3]; shear rate 990 s-1): 0.87 mPa·s
Viscosity Mean ([3]; shear rate 1000 s-1): 0.9112 mPa·s

His-CypB: recombinant His-tagged cyclophilin B, immobilized on Ni-NTA macroporous silica
catalytic activity of immobilized enzyme versus free enzyme in solution [4]: diminished catalytic activity
